The subject of this series is histone 2B. Kind of series: Kinase activity measurement (histone 2B phosphorylation, [33P]ATP flashplate). The series is classed as biochemical. The procedure: Another possibility of detecting the enzymic activity of Akt is that of incubating 100 ng of Akt, at 30° C. for 80 min, with 100 ng of histone 2B in a buffer composed of 50 mM Hepes (pH 7.5), 3 mM MgCl2 and 3 mM MnCl2, 3 μM sodium vanadate, 1 mM DTT, 1% DMSO, 100 nM ATP and 0.16 nM [^33P]-ATP. After stopping the reaction with phosphoric acid and washing with water, the incorporated cpm [counts per minute] are then determined, in a flashplate (NEN) in a Wallac Trilux measuring instrument, as a measure of the phosphorylation of the histone 2B. In this measuring instrument, the quantity of light which was generated from the radioactive decay by the scintillation gel present in the wells is measured quantitatively. It is a direct measure of the degree of phosphorylation of the Akt substrate employed.
In order to measure the kinase activity of truncated Akt1 (Akt1ΔPH) as well as of native Akt1, in each case 100 ng of Akt were incubated, at 30° C. for 80 min, with 100 ng of histone 2B in a buffer comprising 50 mM Hepes, pH 7.5, 3 mM MgCl2 and 3 mM MnCl2, 3 μM sodium vanadate, 1 mM DTT, 1% DMSO, 100 nM ATP and 0.16 nM [^33P]ATP. After the reaction had been stopped with phosphoric acid and the wells had been washed with water, the incorporated […], in a Wallac Trilux measuring instrument, as a measure of the histone 2B phosphorylation. In this measuring instrument, the quantity of light which was generated from the radioactive decay by the scintillation gel which was present in the wells was measured quantitatively. It is a direct measure of the degree of the phosphorylation of the Akt substrate employed.
Commercially obtainable wild-type Akt1 protein (Upstate Biochemicals, Charlottsville, Va., USA), which was likewise expressed in SF9 cells using the baculovirus system and then purified, was also used (results of the activity measurement in FIG. 1a, left-hand column).
The activity of an Akt derivative, which was expressed using the present method and obtained as an active kinase derivative, was compared with the activity of a commercially obtainable Akt1 enzyme (Upstate, Charlottsville, Va., USA). The activity of the commercially obtainable enzyme was obtained by expressing the enzyme, which contained the PH domain, in the baculovirus system and then purifying it. The enzyme was subsequently incubated with PDK1 in the presence of phosphatidylinositol […] lipid vesicles in order to phosphorylate Akt1 at threonine 308. After that, the activated Akt enzyme was separated chromatographically in order to separate it off from the activating PDK1 kinase. The enzyme activities of the two kinases were measured as described in Ex. 4.

Setting [1] is: FIG. 1a, 100 ng Akt, 100 ng histone 2B, 30° C., 80 min, expressed in SF9 cells.

The results in this text go back to patent US20070212341A1, “Method for Preparing Active Kinases Containing Ph Domains” (priority 2004, published 2007).

B1: PDK1-activated Akt1ΔPH: truncated Akt1 protein (amino acids 107-481, GST tag) without PH domain, activated by coexpression with truncated PDK1 in SF9 cells (protein)
chain: ADGLKKQEEEEMDFRSGSPSDNSGAEEMEVSLAKPKHRVTMNEFEYLKLLGKGTFGKVILVKEKATGRYYAMKILKKEVIVAKDEVAHTLTENRVLQNSRHPFLTALKYSFQTHDRLCFVMEYANGGELFFHLSRERVFSEDRARFYGAEIVSALDYLHSEKNVVYRDLKLENLMLDKDGHIKITDFGLCKEGIKDGATMKTFCGTPEYLAPEVLEDNDYGRAVDWWGLGVVMYEMMCGRLPFYNQDHEKLFELILMEEIRFPRTLGPEAKSLLSGLLKKDPKQRLGGGSEDAKEIMQHRFFAGIVWQHVYEKKLSPPFKPQVTSETDTRYFDEEFTAQMITITPPDQDDSMECVDSERRPHFPQFSYSASGTA
modifications: phosphorylated at threonine 308 and serine 473, as the filing says of the active form
As to B1, the “kinase activity compared with commercially obtainable native Akt1 activated by subsequent phosphorylation by PDK1 in the presence of lipid vesicles” value (Ex. 5, measured as described in Ex. 4) is “at least the same activity”. Further, under setting [1], the “kinase activity (histone 2B phosphorylation) compared with Akt1ΔPH not activated by coinfection with PDK1-encoding baculoviruses” value is recorded as “markedly higher activity”; the “kinase activity (histone 2B phosphorylation) compared with Akt kinase derivative containing the PH domain with threonine 308 and serine 473 replaced with aspartic acid” value is on record as “markedly higher activity”. Also, the “kinase activity (histone 2B phosphorylation) compared with commercially obtainable wild-type Akt1 not activated by coinfection with PDK1-encoding baculoviruses” value (FIG. 1b, Ex. 4b, measured as in Ex. 4a) is given as “markedly higher activity”.
